Test results published in patent publication US20030054411A1, “GPR motifs and uses thereof” (priority 2001, published 2003).

B1: AGS3: Activator of G-protein Signalling 3; bioactive 74 amino acid fragment isolated in yeast screen, tested as GST fusion (protein)
chain: MLIKYQSSRIDDQRCPPPDVLPRGPTMPDEDFFSLIQRVQAKRMDEQRVDLAGSPDQEASGLPDPRQQCPPGAS
modifications: left off: a dimerising Fc or GST

Key:
Giα2 = molecular target: T1, Giα2 (Homo sapiens, UniProt P04899); assay: GST fusion protein interaction with purified Giα2; assay type: binding; settings: for interaction with Giα2: GST fusion protein ~300 nM, Gα 60-80 nM
T1 construct: made in house; host or cells: Sf9 insect cells
T1 sequence (P04899 whole entry, the tested form may be a part): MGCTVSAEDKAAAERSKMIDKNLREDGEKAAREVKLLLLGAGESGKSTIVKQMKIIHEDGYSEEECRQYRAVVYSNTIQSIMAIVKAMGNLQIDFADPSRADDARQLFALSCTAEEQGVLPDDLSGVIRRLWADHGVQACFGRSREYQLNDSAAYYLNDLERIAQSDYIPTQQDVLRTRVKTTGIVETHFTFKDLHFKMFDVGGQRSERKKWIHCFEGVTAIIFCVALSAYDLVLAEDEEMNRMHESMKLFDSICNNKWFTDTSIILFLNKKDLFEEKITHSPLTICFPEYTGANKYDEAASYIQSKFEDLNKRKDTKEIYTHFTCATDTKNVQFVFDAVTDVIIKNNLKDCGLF
Description: (A) Bioactivity of cDNA #37 and 53 in yeast strains expressing different Gα subunits. The Gpa1, Giα2Gpa1(1-41), Giα3Gpa1(1-41) and Gα16Gpa1(1-41) yeast strains expressed similar amounts of G-protein as determined by immunoblotting with Gpa1-specific antisera. Each series of experiments include data obtained in the absence of Gα to indicate the signal obtained when the action of Gβγ is not limited by reformation of heterotrimer. Data are presented as the mean±S.E.M of three experiments with duplicate determinations. (B) Interaction of AGS2 and AGS3 with G-proteins. AGS2 and the bioactive AGS3 peptide (74 amino acids) beginning at the first in frame methionine were generated as GST-fusion proteins in bacteria and purified using a glutathione affinity matrix. AGS2 and AGS3 GST fusion proteins were incubated with G-protein subunits (Gα=60-80 nM, Gβγ=40 nM, fusion protein=˜300 nM, total volume=250 ul) for 12 hrs at 4° C. GDP=10 uM. GTPγS=10 uM plus 5 mM MgCl2. Proteins were then adsorbed to glutathione matrix and retained G-protein subunits identified by immunoblotting following gel electrophoresis. Giα2 was generated in Sf9 cells as an amino terminal his6-tagged protein and was detected on membrane transfers using anti-Xpress antisera (Invitrogen). Bovine brain Gβγ was detected on membrane transfers with Gβ antisera. Input refers to 20 ul of the incubation mixture. The results presented are representative of four separate experiments. […] C) Effect of G204A Giα2 substitution and RGS4 on the functionality of AGS proteins. The G204A Giα2 yeast strain and the system used for over expression of RGS4 are described in detail in reference 5. Protein expression was confirmed by immunoblotting. AGS 1 was discovered in a similar screen using a human liver cDNA library (5, 7). WT—wild type strain CY1316/1183 containing Giα2 as described for the original yeast screen. RGS4 was overexpressed in the CY1316/1183 yeast strain. […]
(§1) Immunoblotting and G-protein interaction assays. […] Bound proteins were detected by immunoblotting membrane transfers with specific antisera. […]

[1] = test system: Giα3 in DDT1-MF2 cell lysates; assay: GST-AGS3 interaction with endogenous Giα3 in cell lysates; assay type: binding; settings: 30 uM GDP or GTPγS
Description: A) Sequence of full length rat AGS3. The shaded and overlined sequences represent the tetratricopeptide repeat motif and a repeated segment of amino acids (I-IV), respectively, as discussed in the text. The underlined amino acids indicate the fragment (cDNA #53) isolated in the original yeast screen. B) The four repeat domains in the carboxyl terminus half of AGS3, human LGN, the predicted C. elegans protein and related sequences identified by the motif search program MEME were aligned and used to define a consensus sequence as described in the Examples. Right panel—Interaction of wild type AGS3 and AGS3 mutants with Giα2 in mammalian cell extracts. The AGS3 eDNA isolated in the yeast screen and shown to interact with Gα subunits (FIG. 2B) was modified by site-directed mutagenesis to disrupt conserved residues within the GPR motif. The number of the amino acids altered in the mutant constructs (F8R, Q15A and R23F) refers to their position in the sequence found in the left panel aligning the conserved domains. […] Giα subunits were detected on membrane transfers with the Giα3 antibody and Gβ was detected with an amino terminus antibody. […]
as §1

| Molecule | interaction with Giα2 (Giα2) | preferred nucleotide-bound conformation of Gα (Giα2; GDP 10 uM versus GTPγS 10 uM) | nucleotide preference of interaction with Gα in crude cell lysate [1] |
| --- | --- | --- | --- |
| AGS2: Activator of G-protein Signalling 2, protein identical to mouse Tctex1, isolated from NG108-15 cDNA library | did not interact |  |  |
| B1 | specifically bound | preferred the GDP bound conformation | preferentially interacted with GαGDP versus GTPγS |
